Square brackets hold non-standard residues; d marks the D form. Primed or numbered codes have the meaning given here. FITC′ = fluorescein isothiocyanate; pS = N[C@@H](COP(=O)(O)O)C(=O)O; βAla = NCCC(=O)O
B1: 14-3-3σ with truncated C-terminus ΔC232-248 (domain or fragment, human, UniProt P31947 1-231, looked up)
chain: MERASLIQKAKLAEQAERYEDMAAFMKGAVEKGEELSCEERNLLSVAYKNVVGGQRAAWRVLSSIEQKSNEEGSEEKGPEVREYREKVETELQGVCDTVLGLLDSHLIKEAGDAESRVFYLKMKGDYYRYLAEVATGDDKKRIIDSARSAYQEAMDISKKEMPPTNPIRLGLALNFSVFHYEIANSPEEAISLAKTTFDEAMADLHTLSEDSYKDSTLIMQLLRDNLTLWT

What was measured:
[1] = target: FITC-labeled IκBαpS63 peptide (phosphorylated 14-3-3 binding motif of IκBα) (human) (UniProt P25963); test: fluorescence polarisation
[2] = target: T1, W59F and W228F double mutation of 14-3-3ζ (human, UniProt P63104 1-245, W59F | W228F); test: fluorescence polarisation
T1 sequence (looked up): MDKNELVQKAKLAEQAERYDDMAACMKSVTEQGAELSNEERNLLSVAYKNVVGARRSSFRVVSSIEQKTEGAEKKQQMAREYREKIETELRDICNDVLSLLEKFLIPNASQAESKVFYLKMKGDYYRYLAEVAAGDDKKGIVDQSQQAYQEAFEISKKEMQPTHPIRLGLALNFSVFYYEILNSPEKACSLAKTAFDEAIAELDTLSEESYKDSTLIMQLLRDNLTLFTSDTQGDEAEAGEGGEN

crystal structure = target: the molecule itself; test: crystal structure
[3] = target: B1; test: crystal structure

14-3-3ζ (from UniProt P63104 1-245) (natural protein)
Kd [1]: 380 µM

{FITC′-βAla}-QEVPRG[pS]EPWKQQ-NH2 (peptide, UniProt P25963 57-69, looked up) [FITC-labeled IκBαpS63 peptide (phosphorylated 14-3-3 binding motif of IκBα)]
Kd [2]: ~415 µM

B1
binding result (crystal structure): binds

Ac-QEVPRG[pS]EPWKQQ-NH2 (peptide, UniProt P25963 57-69, looked up) [unlabeled (N-terminally acetylated) IκBαpS63 peptide]
binding result [3]: binds

Source: paper PMC7081424 (ACS Omega, 2020)
